Reference: patent publication US20180100008A1 (VHSQUARED, published 2018)

B1: ID1C (bispecific antibody)
chain: DVQLQESGGGLVQAGGSLRLSCAASGATSDVYAIGWFRQVPGKEREFVATINRSGSDSYYADSVKGRFTISRDNAKNTVYLQMNSLKPEETAVYYCAASRSDCIGYGCRRVSQDYWGQGTQVTVSSGGGGSGGGGSGGGGSGGGGSDVQLQESGGGLVQAGGSLRLSCVISGMDFSHKPAGWFRQAPGKEREFVASITTRASTHYADSVKGRFTISRDNAKNTVYLEMNSLKPEDTAVYYCNSEYYWGQGTQVTVSSGGGGSGGGGSGGGGSGGGGSDVQLQESGGGLVQAGDSLRLSCAASGATLSSYTIGWFRQAPEKEREFVAGSSRDGRTNYYANSVKGRFTISRDNAKNTVYLQMNSLKPEDTAVYYCAAHTTSGVPVRERSYAYWGQGTQVTVSSGGGGSGGGGSGGGGSGGGGSDVQLQESGGGLVQAGGSLRLSCAASGATFSSYYIGWFRQAPGKEREFVAAINGSGGNRISADSVKGRFTISRDNAKNTVYLQLNSLKPEDTAVYYCAASLTYYGRSARYDYWGQGTQVTVSS
B2: ID3C (bispecific antibody)
chain: DVQLQESGGGLVQAGDSLRLSCAASGATLSSYTIGWFRQAPEKEREFVAGSSRDGRTNYYANSVKGRFTISRDNAKNTVYLQMNSLKPEDTAVYYCAAHTTSGVPVRERSYAYWGQGTQVTVSSGGGGSGGGGSGGGGSGGGGSDVQLQESGGGLVQAGGSLRLSCAASGATSDVYAIGWFRQVPGKEREFVATINRSGSDSYYADSVKGRFTISRDNAKNTVYLQMNSLKPEETAVYYCAASRSDCIGYGCRRVSQDYWGQGTQVTVSSGGGGSGGGGSGGGGSGGGGSDVQLQESGGGLVQAGGSLRLSCVISGMDFSHKPAGWFRQAPGKEREFVASITTRASTHYADSVKGRFTISRDNAKNTVYLEMNSLKPEDTAVYYCNSEYYWGQGTQVTVSSGGGGSGGGGSGGGGSGGGGSDVQLQESGGGLVQAGGSLRLSCAASGATFSSYYIGWFRQAPGKEREFVAAINGSGGNRISADSVKGRFTISRDNAKNTVYLQLNSLKPEDTAVYYCAASLTYYGRSARYDYWGQGTQVTVSS

Columns and labels:
[1] = molecular target: T1, TcdB from C. difficile ribotype 027 (Clostridium difficile ribotype 027 …, UniProt P18177 2-2366); assay: ELISA, TcdB coated, quadrahead detected with rabbit polyclonal anti-ICVD
T1 construct: also called 027 TcdB; R20291 (027)

[2] = molecular target: T2, TcdB from C. difficile ribotype 087 (Clostridium difficile ribotype 087 …, UniProt P18177 2-2366); assay: sandwich ELISA (figure legend)
T2 construct: also called 087 TcdB; 10463 (087)

[3] = molecular target: T1, TcdB from C. difficile ribotype 027; assay: sandwich ELISA: TcdB coated, quadrahead, then TcdA, rabbit anti-TcdA pAb
[4] = molecular target: T2, TcdB from C. difficile ribotype 087; assay: as above

Binder	binding result [1]	binding result [2]	binding result [3]	binding result [4]
B1	binds	binds		
B2			binds	binds
